Test results from paper PMC8699845.

Columns and labels:
[1] = molecular target: Recombinant human Wnt Inhibitory Factor 1 (human) (UniProt Q9Y5W5); assay: SPR; BIACORE X; WIF1 or WIF domain amine-coupled to CM5 chip, rhShh injected at 20 µL/min; 20 mM Tris, 150 mM NaCl, 5 mM EDTA, 0.005% Tween 20, 100 µM CHAPS, pH 7.4; 1:1 Langmuir fit
[2] = molecular target: WIF domain of human WIF1 protein (human) (UniProt Q9Y5W5); assay: as above
[3] = molecular target: dually lipidated recombinant human sonic hedgehog (human)

UniProt Q9Y5W5, sequence (Q9Y5W5 29-379): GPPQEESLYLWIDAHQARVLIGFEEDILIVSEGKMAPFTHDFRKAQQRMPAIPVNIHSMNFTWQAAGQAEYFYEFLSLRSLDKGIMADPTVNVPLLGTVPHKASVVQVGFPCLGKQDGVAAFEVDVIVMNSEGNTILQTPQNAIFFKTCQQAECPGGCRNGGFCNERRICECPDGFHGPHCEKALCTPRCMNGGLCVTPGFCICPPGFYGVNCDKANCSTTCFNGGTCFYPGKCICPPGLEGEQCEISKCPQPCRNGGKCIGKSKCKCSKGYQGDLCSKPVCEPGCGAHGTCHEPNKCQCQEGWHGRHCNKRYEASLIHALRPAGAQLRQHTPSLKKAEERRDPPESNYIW

Kd [1] | koff [1] | kon [1] | Kd [2] | koff [2] | kon [2] | Gli luciferase reporter in Gli Reporter-NIH3T3 cells; inhibition of the signaling activity of 0.2 nM rhShh preincubated with 0-50 nM WIF domain; EC50 [3] | Molecule
2.06 nM | 0.000141 s⁻¹ | 68500 M⁻¹ s⁻¹ | 1.18 nM | 5.03e-05 s⁻¹ | 42600 M⁻¹ s⁻¹ | – | dually lipidated recombinant human sonic hedgehog (ligand)
– | – | – | – | – | – | 2.75 nM | WIF domain of human WIF1 protein (domain or fragment) LWIDAHQARVLIGFEEDILIVSEGKMAPFTHDFRKAQQRMPAIPVNIHSMNFTWQAAGQAEYFYEFLSLRSLDKGIMADPTVNVPLLGTVPHKASVVQVGFPCLGKQDGVAAFEVDVIVMNSEGNTILQTPQNAIFFKTC
